Among the data in article PMC4065374 are fold more GST-FlaJ bound than to equimolar unglycosylated FlaA values, retold here.

For this experiment, the target named is glycosylated Aeromonas caviae polar flagellin FlaA, FlaA (+pse) (Aeromonas caviae (endogenous in A. caviae Sch3N and its flaB mutant AAR27)). Briefly: far-Western, overlay or dot blot; glycosylated and unglycosylated FlaA titrated across an SDS-PAGE gel, transferred to nitrocellulose, probed with a constant concentration of GST-FlaJ; αGST-HRP, densitometry, triplicate blots.

B1: GST-tagged Aeromonas caviae flagellin-specific chaperone FlaJ (GST-FlaJ) (natural protein)
chain: MYKRNIKAYTAGNLAADLATADPHRVIQLMMQGCLERLAQAKGAIERNDMEAKSIAISKAQGLLHGLQDALDMSQGRMAEDLYGLYAYMDERVWDASLNRDTEPLEEVMTLMLTIKSGWDQLPETEKNQGYQMRQQLGEL
For B1, the fold more GST-FlaJ bound than to equimolar unglycosylated FlaA turned out to be 5 fold.
